From US20150258192A1, “COMPOSITIONS AND METHODS FOR PREVENTING OR TREATING CHRONIC LUNG ALLOGRAFT DYSFUNCTION (CLAD) AND IDIOPATHIC PULMONARY FIBROSIS (IPF)” (priority 2014, published 2015) come the findings set out here.

Common to all, as to assay: Kinase Profiling Assay
What all share (format): biochemical
Common to all, as to conditions: peptide 100 μM

One assay deals with PKCβII(h) (Homo sapiens, UniProt P05771). In outline: (§1)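 Specificity of MK2 inhibitory peptides is assessed against a panel of 266 human kinases. Kinase transfers a radiolabeled phosphate from ATP onto a positively charged substrate, which is trapped on a negatively charged filter and quantified by scintillation counting against full-activity control; duplicate determinations.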
PKCβII(h), sequence (P05771 1-673 isoform P05771-2): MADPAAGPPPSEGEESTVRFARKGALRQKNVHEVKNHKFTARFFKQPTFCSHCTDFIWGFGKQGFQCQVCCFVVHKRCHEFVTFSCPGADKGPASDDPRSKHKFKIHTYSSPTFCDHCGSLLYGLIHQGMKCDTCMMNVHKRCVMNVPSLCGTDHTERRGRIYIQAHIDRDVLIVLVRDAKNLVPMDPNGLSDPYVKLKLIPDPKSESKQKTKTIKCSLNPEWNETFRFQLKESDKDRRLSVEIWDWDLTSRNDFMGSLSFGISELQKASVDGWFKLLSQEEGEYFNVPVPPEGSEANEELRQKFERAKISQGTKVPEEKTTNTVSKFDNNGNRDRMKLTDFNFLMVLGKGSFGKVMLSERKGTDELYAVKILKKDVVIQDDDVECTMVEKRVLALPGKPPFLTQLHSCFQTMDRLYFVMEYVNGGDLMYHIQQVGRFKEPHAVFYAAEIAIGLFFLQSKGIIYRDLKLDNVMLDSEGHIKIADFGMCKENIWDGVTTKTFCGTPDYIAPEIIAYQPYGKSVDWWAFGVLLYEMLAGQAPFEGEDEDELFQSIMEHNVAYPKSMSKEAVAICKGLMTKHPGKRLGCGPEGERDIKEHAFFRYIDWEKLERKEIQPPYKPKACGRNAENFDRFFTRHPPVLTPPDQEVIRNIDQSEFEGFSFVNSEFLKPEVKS

In another assay the target is T1, ULK2(h) (Homo sapiens, UniProt Q8IYT8).
T1 sequence (Q8IYT8 1-1036): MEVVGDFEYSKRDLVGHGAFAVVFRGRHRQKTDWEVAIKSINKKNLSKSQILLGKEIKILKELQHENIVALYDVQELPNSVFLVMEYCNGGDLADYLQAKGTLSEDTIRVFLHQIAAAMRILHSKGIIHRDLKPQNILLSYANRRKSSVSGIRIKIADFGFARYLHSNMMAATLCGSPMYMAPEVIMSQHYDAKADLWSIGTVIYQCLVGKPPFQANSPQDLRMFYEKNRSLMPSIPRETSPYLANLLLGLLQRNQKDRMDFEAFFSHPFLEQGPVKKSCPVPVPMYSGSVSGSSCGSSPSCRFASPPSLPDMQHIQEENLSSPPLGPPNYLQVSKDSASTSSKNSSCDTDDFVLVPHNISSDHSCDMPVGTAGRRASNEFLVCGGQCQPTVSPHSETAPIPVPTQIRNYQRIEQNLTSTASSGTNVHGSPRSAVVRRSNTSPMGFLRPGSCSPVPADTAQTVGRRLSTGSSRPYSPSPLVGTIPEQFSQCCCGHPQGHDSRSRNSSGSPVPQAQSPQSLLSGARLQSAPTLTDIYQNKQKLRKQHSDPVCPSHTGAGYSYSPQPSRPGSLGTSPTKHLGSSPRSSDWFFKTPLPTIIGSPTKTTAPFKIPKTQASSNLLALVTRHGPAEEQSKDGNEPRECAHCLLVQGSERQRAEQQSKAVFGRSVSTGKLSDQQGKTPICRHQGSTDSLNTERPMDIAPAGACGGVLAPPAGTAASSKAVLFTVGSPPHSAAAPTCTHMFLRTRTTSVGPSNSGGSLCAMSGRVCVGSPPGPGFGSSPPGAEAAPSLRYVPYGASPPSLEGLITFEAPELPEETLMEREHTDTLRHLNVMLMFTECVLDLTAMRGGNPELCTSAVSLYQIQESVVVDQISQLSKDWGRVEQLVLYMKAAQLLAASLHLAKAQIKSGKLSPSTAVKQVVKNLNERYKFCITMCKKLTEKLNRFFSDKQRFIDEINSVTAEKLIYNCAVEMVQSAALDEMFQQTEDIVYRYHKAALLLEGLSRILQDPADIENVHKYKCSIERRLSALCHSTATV
Put shortly:
as §1

The target of another assay is T2, Rse(h) (Homo sapiens, UniProt Q06418).
T2 sequence (Q06418 41-890): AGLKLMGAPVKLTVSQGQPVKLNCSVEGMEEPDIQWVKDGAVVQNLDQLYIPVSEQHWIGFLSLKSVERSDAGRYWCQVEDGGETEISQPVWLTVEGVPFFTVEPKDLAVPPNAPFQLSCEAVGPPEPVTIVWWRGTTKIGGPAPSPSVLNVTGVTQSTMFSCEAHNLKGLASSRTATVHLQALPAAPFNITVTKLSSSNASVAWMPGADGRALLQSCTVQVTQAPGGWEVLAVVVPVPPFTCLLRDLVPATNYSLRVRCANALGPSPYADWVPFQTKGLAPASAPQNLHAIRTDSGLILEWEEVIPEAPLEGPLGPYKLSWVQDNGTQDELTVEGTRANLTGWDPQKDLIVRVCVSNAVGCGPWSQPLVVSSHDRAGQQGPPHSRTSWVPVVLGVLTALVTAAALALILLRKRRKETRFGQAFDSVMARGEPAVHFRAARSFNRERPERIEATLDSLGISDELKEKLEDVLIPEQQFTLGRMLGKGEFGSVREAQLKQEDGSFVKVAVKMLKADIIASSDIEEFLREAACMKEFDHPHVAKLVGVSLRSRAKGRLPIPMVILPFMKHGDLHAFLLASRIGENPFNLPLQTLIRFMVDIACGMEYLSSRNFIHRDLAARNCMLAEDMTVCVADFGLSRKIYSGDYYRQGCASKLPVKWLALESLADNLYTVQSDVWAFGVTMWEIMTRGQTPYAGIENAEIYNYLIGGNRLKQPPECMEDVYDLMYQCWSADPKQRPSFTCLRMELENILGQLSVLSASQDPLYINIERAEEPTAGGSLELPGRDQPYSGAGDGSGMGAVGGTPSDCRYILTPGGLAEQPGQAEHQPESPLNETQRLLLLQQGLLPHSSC
In outline: as §1

For a further assay, the target named is CK1δ(h) (Homo sapiens, UniProt P48730). In outline:
as §1

For the next assay, the target named is CDK2/cyclinA(h) (Homo sapiens, UniProt P24941). In outline: as §1

No end group written: not given here.

CK1δ(h), sequence (P48730 whole entry): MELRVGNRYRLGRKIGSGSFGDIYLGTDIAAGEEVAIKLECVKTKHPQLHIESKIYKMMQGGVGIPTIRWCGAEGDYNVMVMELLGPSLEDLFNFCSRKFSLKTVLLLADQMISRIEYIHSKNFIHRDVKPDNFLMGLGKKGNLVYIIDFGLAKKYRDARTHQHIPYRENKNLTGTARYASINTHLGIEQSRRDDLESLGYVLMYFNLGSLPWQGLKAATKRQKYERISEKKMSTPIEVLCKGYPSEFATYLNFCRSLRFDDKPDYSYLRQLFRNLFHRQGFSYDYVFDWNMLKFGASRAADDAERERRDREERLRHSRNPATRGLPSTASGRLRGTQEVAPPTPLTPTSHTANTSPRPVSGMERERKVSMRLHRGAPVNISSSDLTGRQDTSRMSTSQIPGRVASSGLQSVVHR

Turning to FAKLAARLYRKALARQLGVAA [MMI-0300], the “% activity” value with PKCβII(h) came to 82%; with ULK2(h), 122%; with Rse(h), 88%; with CK1δ(h), 92%; with CDK2/cyclinA(h) it was 86%.

Turning to “HRRIKAWLKKIKALARQLGVAA (Mammal) [MMI-0500]”, the “% activity” value in the assay with PKCβII(h) came to 3%; with ULK2(h), 124%; with Rse(h) it was 63%; in the assay with CK1δ(h), 78%; with CDK2/cyclinA(h), 87%.

KAFAKLAARLYRKALARQLGVAA [MMI-0400]: the “% activity” value with PKCβII(h) is given as 75%; with ULK2(h), 131%; with Rse(h) it was 89%; with CK1δ(h) it was 93%; in the assay with CDK2/cyclinA(h) it was 92%.

For the sequence YARAAARQARAKALARQLGVAA [MMI-0100], on ULK2(h), the “% activity” value was determined as 123%.

As to “YARAAARQARAKALNRQLGVA (Mammal) [MMI-0200]”, the “% activity” value in the assay with PKCβII(h) is listed as 100%; in the assay with ULK2(h), 132%; with Rse(h), 88%; with CK1δ(h), 92%.
